{
  "source": "paper PMC10700544",
  "key": {"[1]": {"target": "His-tagged RNase J K649A (pET28a+) (Helicobacter pylori) (UniProt P56185)", "assay": "AUC; sedimentation velocity of His-tagged purified proteins, alone or mixed; 25 mM Tris-HCl pH 8, 300 mM NaCl, 0.5 mM TCEP; 20 °C; 230 nm; c(s) analysis with Sedfit"}, "[2]": {"target": "His-tagged RNase J wild type (pET28a+) (Helicobacter pylori) (UniProt P56185)", "assay": "AUC; sedimentation velocity of His-tagged purified proteins, alone or mixed; 25 mM Tris-HCl pH 8, 300 mM NaCl, 0.5 mM TCEP; 20 °C; 230 nm; c(s) analysis with Sedfit"}, "[3]": {"target": "full-length RNase J (H. pylori strain B128) with C-terminal 8xHis-tag, from pExp-xMBP-CHis (Helicobacter pylori strain B128) (UniProt P56185)", "assay": "mass photometry; Refeyn TwoMP; 20 mM sodium phosphate pH 7.2, 300 mM NaCl; final concentration of 50 nM"}, "[4]": {"target": "full-length RNase J (H. pylori strain B128) with C-terminal 8xHis-tag, from pExp-xMBP-CHis (Helicobacter pylori strain B128) (UniProt P56185)", "assay": "cryo-EM structure; mixture of RNase J (1 µM) and RhpA (2 µM) in 20 mM sodium phosphate pH 7.2, 500 mM NaCl, 0.5 mM TCEP; Quantifoil R1.2/1.3 grids, 200 kV Talos Arctica"}, "[5]": {"target": "His-tagged RNase J K649Q (pET28a+) (Helicobacter pylori) (UniProt P56185)", "assay": "AUC; sedimentation velocity of His-tagged purified proteins, alone or mixed; 25 mM Tris-HCl pH 8, 300 mM NaCl, 0.5 mM TCEP; 20 °C; 230 nm; c(s) analysis with Sedfit"}, "[6]": {"target": "His-tagged RNase J K649A (pET28a+) (Helicobacter pylori) (UniProt P56185)"}, "[7]": {"target": "His-tagged RhpA (pET28a+) (Helicobacter pylori) (UniProt O25029)", "assay": "AUC; sedimentation velocity of His-tagged purified proteins, alone or mixed; 25 mM Tris-HCl pH 8, 300 mM NaCl, 0.5 mM TCEP; 20 °C; 230 nm; c(s) analysis with Sedfit"}, "[8]": {"target": "His-tagged RNase J K649R (pET28a+) (Helicobacter pylori) (UniProt P56185)", "assay": "AUC; sedimentation velocity of His-tagged purified proteins, alone or mixed; 25 mM Tris-HCl pH 8, 300 mM NaCl, 0.5 mM TCEP; 20 °C; 230 nm; c(s) analysis with Sedfit"}, "[9]": {"target": "RhpA with C-terminal Strep-tag, from pExp-MBP (Helicobacter pylori) (UniProt O25029)", "assay": "mass photometry; Refeyn TwoMP; 20 mM sodium phosphate pH 7.2, 300 mM NaCl; final concentration of 50 nM"}},
  "note": "Values joined by “and” are separate entries in the source; they are usually repeats but may differ in a detail not shown here. Identical values can stand only once.",
  "data": [
    {"substance": "His-tagged RNase J K649A (pET28a+) (from UniProt P56185 1-689) (enzyme)", "values": [
      {"measurement": "stoichiometry N", "setting": "[1]", "result": 4}
    ]},
    {"substance": "His-tagged RNase J wild type (pET28a+) (from UniProt P56185 1-689) (enzyme)", "values": [
      {"measurement": "stoichiometry N", "setting": "[2]", "result": "2 and 4"}
    ]},
    {"substance": "full-length RNase J (H. pylori strain B128) with C-terminal 8xHis-tag, from pExp-xMBP-CHis (from UniProt P56185 1-689) (enzyme)", "values": [
      {"measurement": "stoichiometry N", "setting": "[3]", "result": 4},
      {"measurement": "stoichiometry N", "setting": "[4]", "result": 4}
    ]},
    {"substance": "His-tagged RNase J K649Q (pET28a+) (from UniProt P56185 1-689) (enzyme)", "values": [
      {"measurement": "stoichiometry N", "setting": "[5]", "result": "4 and 2"}
    ]},
    {"substance": "His-tagged RhpA (pET28a+) (from UniProt O25029 1-492) (enzyme)", "values": [
      {"measurement": "half-life of the structured RNA substrate with the complex between RhpA and the RNase J K649A variant (value of the text, differs from the table)", "setting": "[6]", "result": 6.7, "unit": "min"},
      {"measurement": "stoichiometry N", "setting": "[7]", "result": 2}
    ]},
    {"substance": "His-tagged RNase J K649R (pET28a+) (from UniProt P56185 1-689) (enzyme)", "values": [
      {"measurement": "stoichiometry N", "setting": "[8]", "result": "4 and 2"}
    ]},
    {"substance": "RhpA with C-terminal Strep-tag, from pExp-MBP (from UniProt O25029 1-492) (enzyme)", "values": [
      {"measurement": "stoichiometry N", "setting": "[9]", "result": 2}
    ]}
  ]
}
